One molecule from patent publication US20220389111A1 (SHANGHAI EPIMAB BIOTHERAPEUTICS, published 2022) can be followed below.

For assay [1], the target named is T1, mouse CD39 on CHO-K1 cells (mouse, UniProt P55772 1-510).
T1 construct: whole, on cells; also called CHOK1-muCD39
T1 sequence (looked up): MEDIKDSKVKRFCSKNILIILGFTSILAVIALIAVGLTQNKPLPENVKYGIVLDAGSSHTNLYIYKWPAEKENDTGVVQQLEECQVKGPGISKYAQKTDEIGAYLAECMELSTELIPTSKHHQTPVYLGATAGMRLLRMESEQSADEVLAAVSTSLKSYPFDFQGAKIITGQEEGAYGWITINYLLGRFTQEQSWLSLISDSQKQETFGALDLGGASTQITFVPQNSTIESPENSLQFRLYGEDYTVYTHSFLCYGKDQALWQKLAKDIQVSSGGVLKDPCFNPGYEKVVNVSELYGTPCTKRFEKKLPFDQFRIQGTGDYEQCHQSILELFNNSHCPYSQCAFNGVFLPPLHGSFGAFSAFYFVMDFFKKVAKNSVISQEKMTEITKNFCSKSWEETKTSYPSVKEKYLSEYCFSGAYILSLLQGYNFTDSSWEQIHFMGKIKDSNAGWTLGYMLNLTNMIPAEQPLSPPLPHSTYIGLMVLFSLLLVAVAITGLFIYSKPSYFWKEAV
Description: FACS on CHO-K1-mouse CD39 cells. The procedure: The ability of the purified antibodies to bind to cell membrane human CD39, cynomolgus monkey CD39, or mouse CD39 was determined by FACS analysis. CHO-K1 cells stably transfected to overexpress human CD39, cynomolgus monkey CD39, or mouse CD39 (CHO-K1-huCD39 cells, CHO-K1-cyCD39 cells, and CHOK1-muCD39 cells) were generated for use in this assay. Briefly, SK-MEL-28 melanoma cells (ATCC) or CD39 overexpressing stable CHO cell lines were resuspended in PBS containing 2% FBS (FACS buffer) and seeded at 1-5×10⁵ cells/well into U-bottomed plates. Anti-CD39 mAbs or isotype control antibodies diluted in FACS buffer were added to the wells and incubated for 1 hour at 4° C. After washing with FACS buffer, 1:1000 diluted Fluorescence-labeled secondary antibody (Life Technologies/ThermoFisher Scientific) were added and incubated for 30 min. at 4° C. Unbound secondary mAb was removed by washing with FACS buffer three times, and the samples were then read on a FACS instrument. The data were processed by GraphPad software.

Assay [2] addresses T2, mouse CD39 protein (recombinant) (mouse, UniProt P55772 38-478, limits assumed).
T2 construct: also called muCD39; recombinant purified mouse CD39 protein
T2 sequence (looked up): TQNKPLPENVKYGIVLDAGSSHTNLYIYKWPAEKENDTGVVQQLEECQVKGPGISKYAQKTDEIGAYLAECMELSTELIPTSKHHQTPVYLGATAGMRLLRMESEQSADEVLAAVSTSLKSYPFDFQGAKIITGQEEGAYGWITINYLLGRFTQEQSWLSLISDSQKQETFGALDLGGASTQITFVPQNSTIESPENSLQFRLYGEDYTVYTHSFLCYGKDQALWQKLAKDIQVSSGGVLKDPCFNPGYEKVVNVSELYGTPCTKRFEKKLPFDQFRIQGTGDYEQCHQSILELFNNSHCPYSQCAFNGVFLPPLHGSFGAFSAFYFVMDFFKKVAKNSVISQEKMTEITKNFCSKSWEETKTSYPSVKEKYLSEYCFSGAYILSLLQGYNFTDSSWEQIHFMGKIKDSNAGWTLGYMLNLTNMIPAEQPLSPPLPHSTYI
Description: ELISA on coated mouse CD39 protein. The procedure:
To determine if anti-CD39 mAbs bind to human CD39, ELISA plates were incubated overnight at 4° C. with human CD39 protein or mouse CD39 protein diluted in PBS, pH7.4 buffer at 1 μg/ml. Plates were washed four times in washing buffer (PBS containing 0.05% Tween 20), and blocked for 1 hour at 37° C. with 200 μl per well blocking buffer (1% BSA in PBS containing 0.05% Tween 20). After blocking buffer was removed, hybridoma supernatant or diluted purified Abs were added to the wells at 100 μl per well and incubated at 37° C. for 1 hour. The wells were washed four times with washing buffer, and anti-mouse HRP (for mouse anti-human CD39 Ab characterization) or anti-rat HRP (for rat anti-mouse CD39 Ab characterization) (Sigma) were 1:5000 diluted and added to the wells at 100 μl per well. The plates were incubated for 1 hour at 37° C. and washed four times in washing buffer. 100 μl of tetramethylbenzidine (TMB) chromogenic solution were added per well. Following color development, the reaction was stopped with 1N HCl, and absorbance at 450 nm was measured. The data were proceeded by GraphPad software.
Background: In an ELISA, binding on a coated surface is turned into a signal by an enzyme label.

Assay [3] deals with T3, muCD39-ECD-His (mouse, UniProt P55772 38-477).
T3 construct: also called C-terminally hexahistidine-tagged murine CD39 extracellular domain
T3 chain: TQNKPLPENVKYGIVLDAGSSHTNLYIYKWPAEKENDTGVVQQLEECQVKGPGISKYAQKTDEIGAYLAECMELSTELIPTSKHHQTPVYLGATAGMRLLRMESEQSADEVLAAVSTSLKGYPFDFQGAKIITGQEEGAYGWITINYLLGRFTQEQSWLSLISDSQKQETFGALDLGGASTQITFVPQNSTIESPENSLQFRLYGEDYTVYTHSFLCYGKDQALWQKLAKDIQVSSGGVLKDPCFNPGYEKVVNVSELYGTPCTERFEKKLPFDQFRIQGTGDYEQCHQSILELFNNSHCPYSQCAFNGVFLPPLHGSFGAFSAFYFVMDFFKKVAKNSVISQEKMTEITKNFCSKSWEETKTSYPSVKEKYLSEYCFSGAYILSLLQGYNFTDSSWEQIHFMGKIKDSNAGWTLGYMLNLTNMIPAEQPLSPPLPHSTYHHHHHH
As to the kind of experiment: SPR (Biacore T200), antibody captured, antigen in solution. The procedure: The binding kinetics of purified antibodies was determined by surface plasmon resonance-based measurements using a Biacore T200 instrument (GE Healthcare). Briefly, goat anti-mouse IgG Fc polyclonal antibody (Genway) was directly immobilized across a biosensor chip, and antibody samples were injected over reaction matrices at a flow rate of 5 μl/min. The association and dissociation rate constants, kₒₙ (M⁻¹s⁻¹) and koff(s⁻¹), respectively, were determined by making kinetic binding measurements of anti-CD39 antibody capture at five different concentrations of a recombinant human or mouse CD39 target protein (huCD39-ECD-His or muCD39-ECD-His). The equilibrium dissociation constant KD (M) of the reaction between antibodies and related target proteins was then calculated from the kinetic rate constants using the formula: KD=koff/kₒₙ. Binding affinities for murine anti-human CD39 antibodies mAb635 and mAb638 are shown in Table 9; binding affinity for rat anti-mouse CD39 antibody mAb605 is shown in Table 10.
Background: In SPR one partner is held on a chip, and binding of the other changes the refractive index at the surface.

B1: mAb605 (antibody, V domains shown)
VH: EVQLVESGGGLVQPGRSLKLSCAASGFTFSDNYLAWVRQAPEKGLEWVASISFEGISTYYGDSVKGRFTISKDNARRTLYLQMNSLRSEDTATYYCARRSYGSRAMDAWGQGTSVTVSS
VL: DVVMTQTPVSLPVGLGGQASISCRSSQSLVHSNGNTYLSWYLKRPGQSPQLLIYRVSSRFSGVPDRFSGSGSGTDFTLKISKVVPGDLGHYYCLQTTQYPYTFGAGTKLELK
notes: rat anti-mouse CD39 hybridoma mAb, IgG2a, κ
Broadly, the EC50 is the concentration giving half of the maximal effect. As usually defined, the Kd is the concentration at which binding is half-saturated. As usually defined, the koff is the rate constant with which the complex falls apart. Low values mean slow dissociation, high ones fast dissociation. In assay [1], B1 returned an EC50 of 2070 pM. In assay [2], the EC50 worked out at 90 pM. Moreover, in assay [3], the Kd was 389 pM and the koff is 0.000109 s⁻¹.
